Measured values: patent US20010055591A1 (WISYS TECHNOLOGY FOUNDATION, published 2001)
Where a chain is given by its changes, count along the chain named. In names and notes the source's numbering stands.

B1: AT-P3R (antithrombin with the PCI reactive site loop and an arginine at P3) (other)
chain: HGSPVDICTAKPRDIPMNPMCIYRSPEKKATEDEGSEQKIPEATNRRVWELSKANSRFATTFYQHLADSKNDNDNIFLSPLSISTAFAMTKLGACNDTLQQLMEVFKFDTISEKTSDQIHFFFAKLNCRLYRKANKSSKLVSANRLFGDKSLTFNETYQDISELVYGAKLQPLDFKENAEQSRAAINKWVSNKTEGRITDVIPSEAINELTVLVLVNTIYFKGLWKSKFSPENTRKELFYKADGESCSASMMYQEGKFRYRRVAEGTQVLELPFKGDDITMVLILPKPEKSLAKVEKELTPEVLQEWLDELEEMMLVVHMPRFRIEDGFSLKEQLQDMGLVDLFSPEKSKLPGIVAEGRDDLYVSDAFHKAFLEVNEEGSEAAASTAVVIRFRSARPNRVTFKANRPFLVFIREVPLNTIIFMGRVANPCVK
notes: I derived them from P1′ = serine 394 of mature antithrombin
B2: AT-rsl (antithrombin with the reactive site loop sequence of PCI) (other, Homo sapiens, UniProt P01008 33-464, looked up)
chain: B1 chain with R391T
notes: mature; I derived them from P1′ = serine 394 of mature antithrombin; also called AT-rs1; Reactive site loop mutant
B3: AT-pos (antithrombin H-helix mutant D309K, E310K, E312K, E313K) (other, Homo sapiens, UniProt P01008 33-464, looked up)
chain: B1 chain with D309K, E310K, E312K, E313K, R391A, F392G, A395L, R396N
notes: mature; The residue numbers appear to count on mature antithrombin; also called H-helix mutant Poly-K

How the values were obtained:
thrombin (free thrombin) [1] = target: T1, thrombin (free thrombin) (human, UniProt P00734 328-622); test: ratio of κ2 with heparin to κ2 without heparin
Method: (§1) Serine Protease Inhibition Assays. The rates of inhibition of the serine proteases thrombin, factor Xa and APC in the presence and absence of heparin were measured using discontinuous assays under pseudo-first order rate conditions as described previously (Phillips et al., 1994; Rezaie et al., 1995). Protein was diluted in TBS buffer containing 0.1 mg/ml BSA, 0.1% PEG 8000, and 0.01% azide to a final reaction volume of 50 μl. […] Substrates used were Spectrozyme TH (SpTH) for thrombin and trypsin, PCA (SpPCA) for APC, and FXa (SpFXa) for Factor Xa (American Diagnostica, Greenwich, Conn.). Absorbances were determined using a SpectraMax Plus plate reader (Molecular Devices, Sunnyvale, Calif.). Absorbance is directly related to residual protease activity. In assays containing heparin, 1 mg/ml Polybrene was added to the substrate to block further heparin binding during substrate development. For heparin template curve data, varying concentrations (0-1000 μg/ml) of unfractionated heparin were added and proteins were diluted in HNPN buffer. For remaining heparin assays, the resulting optimal heparin concentration (5 μg/ml) was used. […] TM was either purified rabbit TM (RTM) or recombinant 4-6 TM (provided by Dr. Alireza Rezaie). Second-order rate constants of thrombin inhibition were determined using the following equation: […]
(§2) Inhibition in the presence of heparin. Thrombin inhibition is accelerated (300- to 1000-fold) in the presence of heparin (Olson et al., 1992). […] Changes in heparin binding domains may alter the concentration of heparin required for the fastest rate of thrombin inhibition.

[2] = target: T2, thrombin bound to 4-6 TM (recombinant EGF repeats 4-6 of thrombomodulin) (human, UniProt P00734 328-622; P07204 363-483); test: ratio of κ2 with 4-6 TM to κ2 on free thrombin
Method: as §1, with “Protein” for “Serine Protease Inhibition Assays. The rates of inhibition of the serine proteases thrombin, factor Xa and APC in the presence and absence of heparin were measured using discontinuous assays under pseudo-first order rate conditions as described previously (Phillips et al., 1994; Rezaie et al., 1995). Protein”
(§3) Inhibition in the presence of TM.

trypsin = target: T3, trypsin; test: discontinuous trypsin inhibition assay, chromogenic substrate SpTH
T3 construct: The source of the trypsin is doubtful, so see recheck
Method: as §1
Trypsin inhibition assays were performed to examine the overall activity of each mutant protein.

thrombin (free thrombin) [3] = target: T1, thrombin (free thrombin); test: discontinuous thrombin inhibition assay, chromogenic substrate; no TM
Method: as §1, §3

Factor Xa = target: T4, Factor Xa (human, UniProt P00742 41-179; P00742 235-488, limits assumed); test: discontinuous Factor Xa inhibition assay, chromogenic substrate SpFXa
T4 construct: also called FXa
T4 sequence (P00742 41-179 limits assumed, form in doubt, chain 1 of 2): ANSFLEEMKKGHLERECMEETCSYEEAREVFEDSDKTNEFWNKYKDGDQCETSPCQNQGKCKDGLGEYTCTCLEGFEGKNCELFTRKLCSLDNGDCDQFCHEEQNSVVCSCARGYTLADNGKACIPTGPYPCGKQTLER
T4 sequence (P00742 235-488 limits assumed, form in doubt, chain 2 of 2): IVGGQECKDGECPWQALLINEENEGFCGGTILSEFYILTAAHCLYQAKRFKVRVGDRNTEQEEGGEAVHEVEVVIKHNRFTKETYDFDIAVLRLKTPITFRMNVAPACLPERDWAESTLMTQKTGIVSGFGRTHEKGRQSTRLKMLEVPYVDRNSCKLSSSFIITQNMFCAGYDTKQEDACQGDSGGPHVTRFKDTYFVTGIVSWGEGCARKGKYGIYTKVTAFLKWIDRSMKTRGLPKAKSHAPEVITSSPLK
Method: as §1

thrombin (free thrombin) [4] = target: T1, thrombin (free thrombin); test: discontinuous thrombin inhibition assay, chromogenic substrate; no heparin
Method: as §1, §2

thrombin (free thrombin) [5] = target: T1, thrombin (free thrombin); test: discontinuous thrombin inhibition assay, chromogenic substrate; with 5 µg/ml heparin
Method: as §1, §2

[6] = target: T2, thrombin bound to 4-6 TM (recombinant …); test: discontinuous thrombin inhibition assay, chromogenic substrate; thrombin with 4-6 TM
Method: as §1, §3

[7] = target: thrombin bound to rabbit thrombomodulin (RTM) (human; rabbit, UniProt P00734 328-622; Q8HZ48 21-576); test: ratio of κ2 with RTM to κ2 on free thrombin
Method: as §1

[8] = target: T2, thrombin bound to 4-6 TM (recombinant …); test: ratio of κ2 with 4-6 TM to κ2 on free thrombin; remark: listed apart in the source

Binder | Ratio (+/-) of κ2 with and without heparin (thrombin (free thrombin) [1]) | Ratio (+/-) of κ2 with and without 4-6 TM [2] | second-order rate constant (κ2) of inhibition (trypsin) | second-order rate constant (κ2) of inhibition (thrombin (free thrombin) [3]) | second-order rate constant (κ2) of inhibition (Factor Xa) | second-order rate constant (κ2) of inhibition (thrombin (free thrombin) [4]) | second-order rate constant (κ2) of inhibition (thrombin (free thrombin) [5]) | second-order rate constant (κ2) of inhibition [6] | Ratio to no TM (RTM) [7] | Ratio to no TM (4-6 TM) [8]
B1 | 263 fold | 0.6 fold | 10000 M⁻¹ s⁻¹ | 2000 M⁻¹ s⁻¹ | 260 M⁻¹ s⁻¹ | 4800 M⁻¹ s⁻¹ | 1.3e+06 M⁻¹ s⁻¹ | 1200 M⁻¹ s⁻¹ | – | –
B2 | 210 fold | 0.7 fold | 6100 M⁻¹ s⁻¹ | 3400 M⁻¹ s⁻¹ | – | 3000 M⁻¹ s⁻¹ | 630000 M⁻¹ s⁻¹ | 2500 M⁻¹ s⁻¹ | – | –
B3 | 34 fold | 3.7 fold | 9500 M⁻¹ s⁻¹ | 5500 M⁻¹ s⁻¹ | 1000 M⁻¹ s⁻¹ | 5300 M⁻¹ s⁻¹ | 180000 M⁻¹ s⁻¹ | 20000 M⁻¹ s⁻¹ | 90.7 fold | 3 fold
